Article PMC2992962 (Protein expression and purification, 2010)

Target: the molecule itself
Experiment: SEC

B1: recombinant human his-GAPDHS (sperm-specific glyceraldehyde-3-phosphate dehydrogenase lacking the proline-rich N-terminal sequence) (enzyme)
chain: MVSVARELTVGINGFGRIGRLVLRACMEKGVKVVAVNDPFIDPEYMVYMFKYDSTHGRYKGSVEFRNGQLVVDNHEISVYQCKEPKQIPWRAVGSPYVVESTGVYLSIQAASDHISAGAQRVVISAPSPDAPMFVMGVNENDYNPGSMNIVSNASCTTNCLAPLAKVIHERFGIVEGLMTTVHSYTATQKTVDGPSRKAWRDGRGAHQNIIPASTGAAKAVTKVIPELKGKLTGMAFRVPTPDVSVVDLTCRLAQPAPYSAIKEAVKAAAKGPMAGILAYTEDEVVSTDFLGDTHSSIFDAKAGIALNDNFVKLISWYDNEYGYSHRVVDLLRYMFSRDK
B1 was tested, and the “stoichiometry N” value was 4.
